Measured values published in the supplement of paper PMC10724198.
± gives the standard deviation of the averaged measurements.

The sequences below were run on Saccharomyces cerevisiae (assay: protein stability index of tFT-peptide fusion (C-terminal peptide) (PSI (0-1 scale)); higher = more stable (slower turnover)). Conditions: genetic background: wild type; temperature: 30 C.
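Note: PSI is a weighted mean of sequencing reads over stability bins, variants kept only with over 10 reads, mCherry proximal and sfGFP distal, peptide attached via GGGS linker.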

Going from LLPHCRPGSTAA to LLPPGSSSRVAL, the protein stability index rises from 0.692 ± 0.019 to 0.733 ± 0.022.

LLPPPLPPLHSS and LLPPPLPQAPPT are within error of each other in protein stability index: 0.6828 ± 0.0054 for the first, 0.708 ± 0.03 for the second.

Compared with LLPPPPTPPLNL, LLPPPVFPPLSP is higher in protein stability index: 0.688 ± 0.033 for the first, 0.753 ± 0.013 for the second.

LLPPQPYTPLHL and LLPPTLHPPHLP are within error of each other in protein stability index: 0.679 ± 0.13 for the first, 0.751 ± 0.0096 for the second.

LLPRQSRYNAHF and LLPRSSPTPLAH are within error of each other in protein stability index: 0.669 ± 0.075 for the first, 0.735 ± 0.066 for the second.

LLPSAAKLTLLP and LLPSAAPPPQFL are within error of each other in protein stability index: 0.77 ± 0.07 for the first, 0.686 ± 0.035 for the second.

LLPSPLPPHPPP and LLPSRAPTSIPL are within error of each other in protein stability index: 0.637 ± 0.053 for the first, 0.686 ± 0.037 for the second.

LLQQILKDYAEI and LLRDRRQETILK are within error of each other in protein stability index: 0.686 ± 0.033 for the first, 0.623 ± 0.092 for the second.

LLRPPSAPSTLL and LLRSEETTIEPF are within error of each other in protein stability index: 0.706 ± 0.084 for the first, 0.7531 ± 0.004 for the second.

LLRTHTTPKLGG and LLSASPASLSFL are within error of each other in protein stability index: 0.661 ± 0.051 for the first, 0.706 ± 0.054 for the second.

Compared with LLSFFLSPPSIL, LLSHLSPCTRIG is lower in protein stability index: 0.734 ± 0.02 for the first, 0.606 ± 0.051 for the second.

Going from LLSHPDLPPIPP to LLSLSGVLLVPP, the protein stability index rises from 0.503 ± 0.086 to 0.656 ± 0.013.

LLSLVYSPLSPL and LLSRLVVRGLVS are within error of each other in protein stability index: 0.664 ± 0.035 for the first, 0.629 ± 0.087 for the second.

Compared with LLSRLWPASSSG, LLSSFIFSILFF is lower in protein stability index: 0.672 ± 0.08 for the first, 0.496 ± 0.0085 for the second.

LLTGVPRFSLDS and LLTSCLLSCCFR are within error of each other in protein stability index: 0.683 ± 0.014 for the first, 0.671 ± 0.027 for the second.

LLYPALQHVSSV and LMLFCLGCDMSV are within error of each other in protein stability index: 0.721 ± 0.12 for the first, 0.576 ± 0.027 for the second.

Compared with LMYGCAQHRNRS, LPAPGRPSPCRL is higher in protein stability index: 0.61 ± 0.033 for the first, 0.809 ± 0.041 for the second.

Compared with LPAPPPHPLSPV, LPAPRFLVPAFL is lower in protein stability index: 0.7161 ± 0.0063 for the first, 0.637 ± 0.025 for the second.

LPAPSPPSFPAP and LPASPGSVPFLF are within error of each other in protein stability index: 0.743 ± 0.099 for the first, 0.716 ± 0.084 for the second.

Going from LPCPRPVPPSPA to LPDPPEPHLRLP, the protein stability index rises from 0.626 ± 0.018 to 0.694 ± 0.025.

LPDPPLSPPPVR and LPFLPPPPPLRP are within error of each other in protein stability index: 0.675 ± 0.016 for the first, 0.694 ± 0.11 for the second.

LPFRPWLPRSLI and LPGPDLLSRMAS are within error of each other in protein stability index: 0.68 ± 0.059 for the first, 0.659 ± 0.019 for the second.

LPHFHPPLDPPA and LPHPPTPPLPRP are within error of each other in protein stability index: 0.692 ± 0.0079 for the first, 0.667 ± 0.078 for the second.

LPHSPSLPPAFP and LPHTRPLPPRVD are within error of each other in protein stability index: 0.708 ± 0.032 for the first, 0.704 ± 0.015 for the second.

Going from LPILRVVNLMGL to LPISASLLSFPL, the protein stability index rises from 0.5935 ± 0.0048 to 0.716 ± 0.048.

Compared with LPLASIYQLRSN, LPLPPASRSAPP is lower in protein stability index: 0.713 ± 0.039 for the first, 0.589 ± 0.028 for the second.

LPLPPLLPPPSP and LPLPPLRSSRPL are within error of each other in protein stability index: 0.68 ± 0.073 for the first, 0.665 ± 0.036 for the second.

LPLPPSFVHLPF and LPLPSPLLPPRP are within error of each other in protein stability index: 0.732 ± 0.05 for the first, 0.712 ± 0.0051 for the second.

Compared with LPLRLVPLFSPP, LPLYSFSVDFSF is lower in protein stability index: 0.722 ± 0.025 for the first, 0.576 ± 0.0059 for the second.

LPNRRRLFLFPS and LPPAFRIPHTWY are within error of each other in protein stability index: 0.735 ± 0.05 for the first, 0.71 ± 0.0071 for the second.

LPPGFPYLSQLP and LPPHPPREAPPN are within error of each other in protein stability index: 0.666 ± 0.052 for the first, 0.682 ± 0.083 for the second.

LPPLPPSPPSPR and LPPPHPPFPPRF are within error of each other in protein stability index: 0.697 ± 0.029 for the first, 0.715 ± 0.059 for the second.

LPPPHPPTPAPP and LPPPLPSTRPVF are within error of each other in protein stability index: 0.621 ± 0.075 for the first, 0.6943 ± 0.005 for the second.

Compared with LPPPPLTLPPPP, LPPPPPPPPPSP is higher in protein stability index: 0.694 ± 0.02 for the first, 0.82377 ± 0.00068 for the second.

LPPPPPSRSRPV and LPPPRPPASPSL are within error of each other in protein stability index: 0.712 ± 0.039 for the first, 0.677 ± 0.033 for the second.

LPPPSFPSISLF and LPPPSPPPPPSP are within error of each other in protein stability index: 0.675 ± 0.14 for the first, 0.68 ± 0.028 for the second.

LPPPTPPPPLLP and LPPPTSFPSFPP are within error of each other in protein stability index: 0.779 ± 0.093 for the first, 0.724 ± 0.027 for the second.

Going from LPPRSPLYPLPP to LPPSPPTVPSPP, the protein stability index rises from 0.613 ± 0.018 to 0.67 ± 0.027.

LPPSSLPLPCLL and LPPSSSPSYIFS are within error of each other in protein stability index: 0.793 ± 0.21 for the first, 0.744 ± 0.047 for the second.

Going from LPPTPSSPPPPL to LPPVQARDPNWQ, the protein stability index falls from 0.709 ± 0.06 to 0.6367 ± 0.0014.

Going from LPQTVPPPPSPP to LPRALLLHGHRP, the protein stability index rises from 0.624 ± 0.06 to 0.771 ± 0.067.

LPRFRNRFPRRW and LPRLHLSPASPP are within error of each other in protein stability index: 0.664 ± 0.036 for the first, 0.611 ± 0.048 for the second.

LPSARSLVSPSP and LPSPAFLTPPPL are within error of each other in protein stability index: 0.74 ± 0.0092 for the first, 0.788 ± 0.1 for the second.

LPSPHPPPPPAH and LPSPISLSPPLP are within error of each other in protein stability index: 0.727 ± 0.081 for the first, 0.652 ± 0.051 for the second.

LPSPPPLISLIP and LPSPRRPPTPSA are within error of each other in protein stability index: 0.644 ± 0.12 for the first, 0.657 ± 0.015 for the second.

LPSPSSSPPPFP and LPSRLPPQPSPA are within error of each other in protein stability index: 0.7274 ± 0.0013 for the first, 0.687 ± 0.071 for the second.

Going from LPTLFPSAPSAI to LPVPLFPLFLTS, the protein stability index falls from 0.664 ± 0.05 to 0.573 ± 0.011.

Compared with LPVPTLGRPLSL, LPVVGLVPPARS is lower in protein stability index: 0.69 ± 0.034 for the first, 0.5103 ± 0.003 for the second.

LPYSAPPISLTN and LQCAVPPRDLTS are within error of each other in protein stability index: 0.702 ± 0.011 for the first, 0.645 ± 0.074 for the second.

LQHCSAPLLTNS and LQLKNTNKNKTT are within error of each other in protein stability index: 0.74 ± 0.085 for the first, 0.666 ± 0.047 for the second.

LQPPAPPSPQSD and LRAPRGEFHWFL are within error of each other in protein stability index: 0.702 ± 0.081 for the first, 0.684 ± 0.11 for the second.

LRAVCDLTGSRV and LRCCGGCGVCAL are within error of each other in protein stability index: 0.68 ± 0.072 for the first, 0.686 ± 0.03 for the second.

First: LRCLTIILYSMV
Second: LRCPLPFFSAFF
The protein stability index of the first is lower: 0.549 ± 0.033 for the first, 0.704 ± 0.11 for the second.

First: LRDIEEIHRRGA
Second: LRDLLVFCDLFR
The protein stability index of the first is higher: 0.782 ± 0.013 for the first, 0.695 ± 0.0082 for the second.

LRDQEYAMRPPC and LRDWCMLGELAR are within error of each other in protein stability index: 0.693 ± 0.08 for the first, 0.742 ± 0.014 for the second.

Going from LREENKKSETKR to LRFRTVTRSGLR, the protein stability index falls from 0.705 ± 0.027 to 0.626 ± 0.048.

LRGDGGLFGDSG and LRGLAVWCGYFS are within error of each other in protein stability index: 0.655 ± 0.035 for the first, 0.619 ± 0.02 for the second.

LRGRRPFSQRAT and LRGRYNDVRHGK are within error of each other in protein stability index: 0.662 ± 0.034 for the first, 0.708 ± 0.053 for the second.

LRHSCSTYRIFS and LRIGVEAGRAHR are within error of each other in protein stability index: 0.683 ± 0.028 for the first, 0.648 ± 0.033 for the second.

First: LRIRSTSSPPRP
Second: LRKVIGVSFCLA
The protein stability index of the first is higher: 0.74 ± 0.015 for the first, 0.542 ± 0.049 for the second.

LRLPPPPPLPHV and LRMWFGLMRPDA are within error of each other in protein stability index: 0.704 ± 0.033 for the first, 0.66 ± 0.034 for the second.

First: LRNNKIKLIQKK
Second: LRNWIGGTLGGG
The protein stability index of the first is higher: 0.7809 ± 0.0034 for the first, 0.7 ± 0.0095 for the second.

LRPASPVGRQTQ and LRPFLFSALPLT are within error of each other in protein stability index: 0.691 ± 0.04 for the first, 0.672 ± 0.01 for the second.

LRPLKVSGGGRG and LRPSPGYRLGIH are within error of each other in protein stability index: 0.685 ± 0.045 for the first, 0.791 ± 0.1 for the second.

LRPVPLCPAALL and LRRPSPPTPSPP are within error of each other in protein stability index: 0.695 ± 0.037 for the first, 0.86 ± 0.2 for the second.

LRRVKSGPYFRF and LRSLLYDKVISL are within error of each other in protein stability index: 0.684 ± 0.074 for the first, 0.676 ± 0.055 for the second.

LRSMSPPPHSLA and LRTHPPGPLPLA are within error of each other in protein stability index: 0.688 ± 0.058 for the first, 0.654 ± 0.12 for the second.

Going from LRTLALSYTSLT to LRVRTLGLPLVY, the protein stability index falls from 0.664 ± 0.035 to 0.569 ± 0.026.

Compared with LRVYCVIPLSGM, LSARVSYRITLR is higher in protein stability index: 0.526 ± 0.049 for the first, 0.599 ± 0.019 for the second.

LSASAWCSSLTR and LSCALCLLGFRC are within error of each other in protein stability index: 0.714 ± 0.047 for the first, 0.647 ± 0.029 for the second.

LSCFVFRLSWFL and LSCLFYSYSVSS are within error of each other in protein stability index: 0.556 ± 0.11 for the first, 0.607 ± 0.068 for the second.

LSDFFLDREGRV and LSDIDLLGLPIL are within error of each other in protein stability index: 0.654 ± 0.034 for the first, 0.66 ± 0.085 for the second.

LSEDGGHRWHRI and LSELCFAPRSPE are within error of each other in protein stability index: 0.796 ± 0.087 for the first, 0.706 ± 0.046 for the second.

Compared with LSFAVFIDFFTA, LSFFLFLLSPFY is higher in protein stability index: 0.5223 ± 0.003 for the first, 0.582 ± 0.028 for the second.

LSFFYLLSSYFL and LSFLSDFCLWVL are within error of each other in protein stability index: 0.62 ± 0.019 for the first, 0.659 ± 0.053 for the second.

LSFPAPLPLFNT and LSFSSLYFPSLC are within error of each other in protein stability index: 0.767 ± 0.037 for the first, 0.651 ± 0.081 for the second.

LSFTSVLGQIPV and LSGVSGALVFVG are within error of each other in protein stability index: 0.705 ± 0.039 for the first, 0.676 ± 0.047 for the second.

Compared with LSLLFLSLSLLR, LSLPHPSPLSFS is higher in protein stability index: 0.61 ± 0.042 for the first, 0.718 ± 0.038 for the second.

LSLPSPRPPPSP and LSLSVNLPLFPT are within error of each other in protein stability index: 0.713 ± 0.063 for the first, 0.648 ± 0.067 for the second.

LSNFLFYGLCPG and LSNLQPPISVPL are within error of each other in protein stability index: 0.651 ± 0.081 for the first, 0.6473 ± 0.006 for the second.
